Results published in patent US8008547B2, “Glyphosate-N-acetyltransferase (GAT) genes” (E.I. duPont de Nemours, priority 2000, dated 2011).
Positions count from the first letter of the chain named.

B1: SEQ ID NO: 503: GAT polypeptide (protein)
chain: MIEVKPINAEDTYELRHRILRPNQPLEVCMYETDLLRGAFHLGGFYRGKLISIASFHQAEHSDLQGQKQYQLRGMATLEGYREQKAGSSLIKHAEEILRKRGADLLWCNARTSASGYYKKLGFSEQGEIFDTPPVGPHILMYKRIT
modifications: 8_1F8
notes: GAT polypeptide
B2: SEQ ID NO: 507: GAT polypeptide (protein)
chain: B1 chain with I2L, R18K, F45Y, K92R, I129V, I145L
modifications: 8_1H9
notes: GAT polypeptide
B3: SEQ ID NO: 506: GAT polypeptide (protein)
chain: B1 chain with I2L, L26I, D63E, L105M, D131E, I145L
modifications: 8_1H7
notes: GAT polypeptide
B4: SEQ ID NO: 504: GAT polypeptide (protein)
chain: B1 chain with I19V, F45Y, D63E, I129V, D131E, I145L
modifications: 8_1G2
notes: GAT polypeptide
B5: SEQ ID NO: 505: GAT polypeptide (protein)
chain: B1 chain with I2L, R18K, L26I, F45Y, D63E, K92R
modifications: 8_1G3
notes: GAT polypeptide
B6: SEQ ID NO: 285: GAT polypeptide (protein)
chain: MIEVKPINAEDTYEIRHRILRPNQPLEACMYETDLLGGAFHLGGYYQGKLISIASFHKAEHSELEGQKQYQLRGMATLEGYREQKAGSTLIRHAEELLRKKGADLLWCNARTSVRGYYEKLGFSEQGGVYDIPPIGPHILMYKKLT
modifications: 11H3
notes: GAT polypeptide
B7: SEQ ID NO: 281: GAT polypeptide (protein)
chain: MIEVKPINAEDTYEIRHRILRPNQPLEACKYETDLLGGTLHLGGYYRGKLVSIASFHQAEHPELEGQKQYQLRGMATLEGYREQKAGSTLIRHAEELLRKKGADLLWCNARTSASGYYKKLGFSEQGEVYDIPPVGPHILMYKKLT
modifications: 10_6D11
notes: GAT polypeptide
B8: SEQ ID NO: 283: GAT polypeptide (protein)
chain: B6 chain with M30K, A39T, K58Q, R115S, E119K
modifications: 11C3
notes: GAT polypeptide
B9: SEQ ID NO: 302: GAT polypeptide (protein)
chain: B7 chain with G38S, L40F, V51I, V135T
modifications: 13_7B12
notes: GAT polypeptide
B10: SEQ ID NO: 287: GAT polypeptide (protein)
chain: B7 chain with L40F, I132T
modifications: 12_2G9
notes: GAT polypeptide
B11: SEQ ID NO: 512: GAT polypeptide (protein)
chain: B7 chain with L40F, V51I, Q58N, P62S, A114V, V135I
modifications: GAT2_15G8
notes: GAT polypeptide
B12: SEQ ID NO: 306: GAT polypeptide (protein)
chain: B7 chain with G37R, T39A, L40F, V51I, G80E, I132T
modifications: 14_10C9
notes: GAT polypeptide
B13: SEQ ID NO: 510: GAT polypeptide (protein)
chain: B6 chain with A39T, Q47R, K58Q, R115S, E119K, Y130C, T146A
modifications: GAT1_29G1
notes: GAT polypeptide
B14: SEQ ID NO: 289: GAT polypeptide (protein)
chain: B7 chain with L40F, V51I, G80E, I132A, V135T
modifications: 12_5C10
notes: GAT polypeptide
B15: SEQ ID NO: 291: GAT polypeptide (protein)
chain: B7 chain with K30M, L40F, V51I, G80E, E128G
modifications: 12_6D1
notes: GAT polypeptide
B16: SEQ ID NO: 304: GAT polypeptide (protein)
chain: B7 chain with L35S, L40F, V51I, H57N, E128G
modifications: 13_8G6
notes: GAT polypeptide
B17: SEQ ID NO: 284: GAT polypeptide (protein)
chain: B6 chain with A39T, K58Q, V114A, R115S, T146A
modifications: 11G3
notes: GAT polypeptide
B18: SEQ ID NO: 508: GAT polypeptide (protein)
chain: B7 chain with L40F, V51I, Q58N, P62S, A114V, V135I
modifications: GAT1_21F12
notes: GAT polypeptide
B19: SEQ ID NO: 296: GAT polypeptide (protein)
chain: B6 chain with A39T, R115S, E119K, V129I
modifications: 12F5
notes: GAT polypeptide
B20: SEQ ID NO: 513: GAT polypeptide (protein)
chain: B7 chain with K30M, L40F, V51I, A114V, K119E, Y130C, V135I
modifications: GAT2_19H8
notes: GAT polypeptide
B21: SEQ ID NO: 286: GAT polypeptide (protein)
chain: B7 chain with L40F, V51I, Y130H, V135T
modifications: 12_1F9
notes: GAT polypeptide
B22: SEQ ID NO: 293: GAT polypeptide (protein)
chain: B7 chain with L40F, E96A, V135T
modifications: 12_6H6
notes: GAT polypeptide
B23: SEQ ID NO: 297: GAT polypeptide (protein)
chain: B6 chain with M30K, A39T, R115S, E119K, G128E
modifications: 12G7
notes: GAT polypeptide
B24: SEQ ID NO: 282: GAT polypeptide (protein)
chain: B7 chain with T39A, L40F, V51I, E128G
modifications: 10_8C6
notes: GAT polypeptide
B25: SEQ ID NO: 292: GAT polypeptide (protein)
chain: B7 chain with L40F, V51I, V135T
modifications: 12_6F9
notes: GAT polypeptide
B26: SEQ ID NO: 294: GAT polypeptide (protein)
chain: B7 chain with L40F, V51I, E128G, V135T
modifications: 12_7D6
notes: GAT polypeptide
B27: SEQ ID NO: 511: GAT polypeptide (protein)
chain: B7 chain with K30M, L40F, V51I, A114V, K119E, V135I
modifications: GAT1_32G1
notes: GAT polypeptide
B28: SEQ ID NO: 290: GAT polypeptide (protein)
chain: B7 chain with L40F, E128G
modifications: 12_6A10
notes: GAT polypeptide
B29: SEQ ID NO: 299: GAT polypeptide (protein)
chain: B7 chain with K30M, L40F, V51I, H57N, G80E, Y142H
modifications: 13_12G12
notes: GAT polypeptide
B30: SEQ ID NO: 301: GAT polypeptide (protein)
chain: B7 chain with K30M, G37R, G38S, T39A, L40F, V51I, G80E, I132T
modifications: 13_7A7
notes: GAT polypeptide
B31: SEQ ID NO: 514: GAT polypeptide (protein)
chain: B6 chain with A39T, Q47R, K58Q, R115S, E119K
modifications: GAT2_21F1
notes: GAT polypeptide
B32: SEQ ID NO: 288: GAT polypeptide (protein)
chain: B7 chain with L40F, V51I, E128G
modifications: 12_3F1
notes: GAT polypeptide
B33: SEQ ID NO: 305: GAT polypeptide (protein)
chain: B7 chain with L40F, V51I, G80E
modifications: 13_9F6
notes: GAT polypeptide
B34: SEQ ID NO: 295: GAT polypeptide (protein)
chain: B7 chain with L40F, V51I, P62S, I132T
modifications: 12_7G11
notes: GAT polypeptide
B35: SEQ ID NO: 303: GAT polypeptide (protein)
chain: B7 chain with G37R, T39A, L40F, V51I, S115R, V135T
modifications: 13_7C1
notes: GAT polypeptide
B36: SEQ ID NO: 509: GAT polypeptide (protein)
chain: B6 chain with A39T, Q47R, K58Q, S113F, R115S, G128E, H138Y, K143E
modifications: GAT1_24G3
notes: GAT polypeptide
B37: SEQ ID NO: 298: GAT polypeptide (protein)
chain: B6 chain with Q47R, K58Q, V114A, R115S, E119K
modifications: 1_2H6
notes: GAT polypeptide

Assay: Standard protocol for determination of kcat and KM (continuous spectrophotometric assay, Acetyl CoA hydrolysis at 235 nm)
Assay type: biochemical
Settings: purified protein, about 23° C., 0.2 mM acetyl CoA; for Kcat: 20 mM HEPES pH 6.8, 10% ethylene glycol; for Km: pH 6.8, glyphosate 0.125 to 10 mM
Procedure, shortened: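 KM from initial rates over 0.125–10 mM glyphosate, fitted by Lineweaver-Burke transformation of Michaelis-Menten; kcat/KM computed as kcat divided by KM. Continuous spectrophotometric read of acetyl-CoA hydrolysis at 235 nm.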

Molecule | Kcat [s⁻¹] | Km [µM]
B1 | 1.381 | 
B2 | 1.306 | 
B3 | 1.6873 | 
B4 | 1.124 | 
B5 | 1.815 | 
B6 | 0.02 | 1400
B7 | 1.04 | 1200
B8 | 0.0467 | 3100
B9 | 1.15 | 1700
B10 | 2.523 | 1500
B11 | 0.075 | 2800
B12 | 2.12 | 900
B13 | 0.103 | 4000
B14 | 1.49 | 1500
B15 | 0.817 | 1200
B16 | 0.562 | 610
B17 | 0.26 | 1700
B18 | 0.09 | 4600
B19 | 0.0517 | 1800

Molecule | Kcat [s⁻¹] | Km [µM]
B20 | 0.0683 | 2800
B21 | 1.34 | 3000
B22 | 1.51 | 1600
B23 | 0.0383 | 3700
B24 | 0.362 | 700
B25 | 1.48 | 1900
B26 | 0.898 | 1400
B27 | 0.075 | 3300
B28 | 0.912 | 1100
B29 | 0.602 | 690
B30 | 1.95 | 500
B31 | 0.07 | 3000
B32 | 0.735 | 900
B33 | 0.983 | 1300
B34 | 3.908 | 2000
B35 | 0.802 | 1500
B36 | 0.0817 | 3800
B37 | 0.155 | 900
